# Laboratory results as given in the DeepSol protein solubility set.
# Test: soluble on expression in E. coli; label from the status in PepcDB or PDB records
row,Sequence,soluble on expression in E. coli
1,MEESDQTVLLPNVENEIGSFYHDMPDEKLLRHIKAIFDEASLRPSLTKNVPSTSSQVTEELNKVEIRDPKHEMQDEQYLSIFENPSGVQYNQADGSFSWNNRFHSDNSVQYINVLNNYGCEGADTLLNQSDSSDETDESIEERRTPRGNRQSRSNLTSKPSAKYWTKRGGDPIVNCSCSICGSKFSTIRCLLDHRHQEHSLKDMMMCGLCGKEFSKRTHIYLHLSQEYKVYHCDGCNTSFASKWHLEKHRCKENETIDDKKRRRTGRVNAEEIKVIKEEIQDEEFGGVVLSNENHEKSKEDRFQFACVLCGKKYQHYHWLLKHRTKCLETTDEIQEFKCNVCYRRYNSSFWFERHMEKCNSSTALPPALLDQTISCPNCHKKYQNEYWFDYHKKHCPDITPALSDVHLDVNSLRDRRPREGEISVVPDVNLFGIEPEREDDNDDDEDADATISSSSSSTGNLVNIPCSICGKFCVGVASLLHHRKQIHGLTAMLTCGVCTKKFNTLSSIRRHMSMEYSIFRCQQCGRNCIDRTTLDRHECFKPYKIRDKRLFNIQNISVLKCPDCRATFANLNVLSEHRKTCQYGNVFDNIQQPGSSSLRQHHRSDTNGAALQRKITSRVRLDSNTPEKWTCRDCHASFHNLQALCSHRHESHGKEMFQCNNCSETLPNYRALHDHNMMHCRNNRSTNETTTRRYSEEDINYDYMDNVQIFVVEESEIFIPIQPHFSRK,not soluble
2,MSYNLNLSHNIYKDAKLGTYYFRITYYDKSNTRKYITRKGFKQRKDAVKKCNEMMDELEGVGHLNRLPFDKLVEEYIDWYSARRKTSSVKALKTHTNNHLLPYFKSMDVFKMTTQDVMKFQNKKLKEGHSGDYLKKMHVYLVSLLNHAMKFHELKQNVASLVGNFEIESQKRLNYWTLEQFNQFYEALATQQQKLFFKLLFYSGARKGEIRALTWRDINFDDDFIHINKTDYHGEVTAPKTKSAIRDIYLPTHMMYDIKDYLIWYKENNIYKDDYVLFGTFYKAYSESTIDRW,not soluble
3,MGSDKIHHHHHHMSLSNMQVFNDYIMPATIKSLDQMIDKFNAGSAGAIVLSSEGMTGDFMRESFFASLAAAQRRVNRKGANGAASATDLSELTGSKVKIAGGFGPVRYEPSQMTWLQRPTQQGVLAASTAFAELLLQDQLNTAIAALVAALSNNAAVTNDVSGSAGMTYGAINSAHAKFGDASGQIVANVMTGTVAHKLIGDNLTNGQRLFTAGNVNVIDILGKAVIVTDAPALYEAGTPNKSKVLGLVPGAATVGNTSDIITNVETTNGKERIETTFQADYSFSLGLKGYGWDEANGGASPTDAEIATGTNWDKVAEFDKMTAGVIAVADADQ,not soluble
4,MGSDKIHHHHHHMTKARKVLVSALCFTALIGEAAVGREQVVLKPSGQWNINYADESCQLARTFGVGDQKTLVQFERFGPENGFALMIVSPLLKFQENFRAVPNRMLHPTKRQYLDTVFQFLPGGEPYKQPGIPAMDAASRQPTLMAFLSLEGPRKDAAPTATGTASASEDRKLTNEERLALEKATNALLVEQPFNDPIRFELGSLAQPFATLAACTDDLVRSWGLQTDPEHAAVNPPKPIGSPSEWFDDKKLAERVWSKRENAIIYFRMIVSDKGAPESCVIQDSSQTTELRDLSCRALMGKARFTPGTNAAGQSVRSVYRGAVRYFTSRN,not soluble
5,GMAKKTLILYYSWSGETKKMAEKINSEIKDSELKEVKVSEGTFDADMYKTSDIALDQIQGNKDFPEIQLDNIDYNNYDLILIGSPVWSGYPATPIKTLLDQMKNYRGEVASFFTSAGTNHKAYVSHFNEWADGLNVIGVARDDSEVDKWSK,soluble
6,MGHHHHHHSHLSPEPPVYSLQDFDTLATVGTGTFGRVHLVKEKTAKHFFALKVMSIPDVIRLKQEQHVHNEKSVLKEVSHPFLIRLFWTWHDERFLYMLMEYVPGGELFSYLRNRGRFSSTTGLFYSAEIICAIEYLHSKEIVYRDLKPENILLDRDGHIKLTDFGFAKKLVDRTWTLCGTPEYLAPEVIQSKGHGRAVDWWALGILIFEMLSGFPPFFDDNPFGIYQKILAGKIDFPRHLDFHVKDLIKKLLVVDRTRRLGNMKNGANDVKHHRWFRSVDWEAVPQRKLKPPIVPKIAGDGDTSNFET,not soluble
7,EITPLIFQKQTTEPVENLRTYTALEMEGRDIYIREGCNVCHSQMIRPFRAETERYGHYSVAGESVWEHPFLWGSKRTGPDLARVGQRYSDEWHRVHLINPRDVVPESNMPGFPWLEENVLDGELTSKKIAIFRDNFGVPYTEEDVKNASEEVKGKTEMDALIAYLQSLGH,not soluble
8,MSHLVYVSRVVAAPIERVWPHLRDFNGLSAWHPGVADSRLEEGGRDDAPGTVRFLSLNPSGYVRERLLMLDDAGRSLRYAIIETDLPMRDYVAGVDLCPVTEGGGTFAQWWADFDVVAGANRDEVARLVGEGVFAAGLQALDQYLRDRQG,soluble
9,GFKCGIVGLPNVGKSTLFNALTKAGIEAANFPFCTIEPNTGVVPMPDPRLDQLAEIVKPQRTLPTTMEFVDIAGLVKGASKGEGLGNQFLTNIRETEAIGHVVRCFENDNIIHVSGKVNPADDIEVINTELALADLDTCERAIHRVQKKAKGGDKDAKAELAVLEKCLPQLENAGMLRALDLSAEEKAAIRYLSFLTLKPTMYIANVNEDGFENNPYLDQVREIAAKEGSVVVPVCAAVEADIAELDDEERDEFMQELGLEEPGLNRVIRAGYKLLNLQTYFTAGVKEVRAWTIPVGATAPQAAGKIHTDFEKGFIRAQTISFEDFITYKGEQGAKEAGKMRAEGKDYIVKDGDVMNFLFNV,not soluble
10,MGSDKIHHHHHHMTEDEAITQLRRFVAALESGSRRNANDAAFALLAGNPPLGDRWQSIAHVMQTNGEYSAAHLAMARFAAHRADPNARFAQAAMLAQTGQLEEAWKVMGSVPFGVPSVSGHHYIRGTIAVNLGHIEDAEKHLLAAIEAEPALGQAMLSLAAARKRKAGDPIGDRILSAEPRMEGAPPLERAHFHYAAGRVHFDRREPDEAFRHFSAGAELVRGWRSYDAAADARDAAECRQGFDRDFVDKINNLVTLDTSQPIFVTGLPRSGTTLVEQILVSHSAVSGGEELGRMGVVRRDLTSLSAKGLSDYLQAGGNADDLAALYLHLGQERFGKEGRFVDKALNTSRFTGLIAALLPHAPIVWLRRDPADCAFSAYRTYFINGLDWSWNLEDIATHFALEDQLFHHWSRMFPDRILAVDYQQLVQEPQAQIRRILAHCNLEEEPQVFRPHETQRVVSTASVMQVREPINTGAVGAAGAYRLHLAPFVDRYEALSAAT,not soluble
11,MQKINDAGELAKHSVVVTTFDTIKTLMNFQTLQKISFERIIIYDAYPIDNTDTQRYKALRQLDATYRWVLTGNLLQQNLANFLKLGEYGDDQLWDTQICPILEGKQCDEKTELSKKIENLLKSVELKFPLENYREMEVGADDSQ,not soluble
12,MSTEIKTQVVVLGAGPAGYSAAFRCADLGLETVIVERYNTLGGVCLNVGCIPSKALLHVAKVIEEAKALAEHGIVFGEPKTDIDKIRTWKEKVINQLTGGLAGMAKGRKVKVVNGLGKFTGANTLEVEGENGKTVINFDNAIIAAGSRPIQLPFIPHEDPRIWDSTDALELKEVPERLLVMGGGIIGLEMGTVYHALGSQIDVVEMFDQVIPAADKDIVKVFTKRISKKFNLMLETKVTAVEAKEDGIYVTMEGKKAPAEPQRYDAVLVAIGRVPNGKNLDAGKAGVEVDDRGFIRVDKQLRTNVPHIFAIGDIVGQPMLAHKGVHEGHVAAEVIAGKKHYFDPKVIPSIAYTEPEVAWVGLTEKEAKEKGISYETATFPWAASGRAIASDCADGMTKLIFDKESHRVIGGAIVGTNGGELLGEIGLAIEMGCDAEDIALTIHAHPTLHESVGLAAEVFEGSITDLPNPKAKKK,soluble
13,MGSDKIHHHHHHMRRPRRPQDFLEYEKVLKFKESEKQIEETETKGDVRVALVVPSGYEVAASGLAFHYVQKLLNSHPRIRCERFFYDETFKKFYSLETQTPIDEFPIWLFSVSFENDFSNLLDILKKKDVPLSWKEREDYHPLIIIGGAVTYLNEEFLIPVADAVYYGELEKYLDLFTEALTGETKQEILSSLSRIPSVEVPSLKEHSEIATGVDLNDFLPHSSVVPSRGVFPGKLLVEVGRGCIRRCAFCIFGKNLKPARFVKPERFEELVKNTPYSEYGLISATITDYPWLEDLLDTVEKYQLKISVSSLRLDRLSERLLRTLKDSGQRSFTIAPEAGSQRIRDILKKDITDEQIENALKLARKLDFDRVKMYFIYGLEEETEEDLEAFKKLGDLAVRLGYREVHMSFNPLIPKPGTEFERRKMEPVDVLRKKEKILKNLLKGFRVDFESIRESVVQYTIAHAGKEEVESWLKFFEKSDKKLLGKLIYEEGRKRLC,not soluble
14,MSQFSFTKMHGLGNSYIYVNMFEEQIPEEDLALVAEKVSNINTGIGADGMILICPSDVAPVKMRMFNNDGSEGKSCGNGLRCVAKYAYEHKLVEDTVFTIETLAGIVTAEVTVEEGKVTLAKIDMGAPRLTRAEIPMLGEGETPFIRENFLYNNHRYAFTAVSMGNPHAVIFVDDVEQAPLTTLGPVLETHEMFPERVNVEFIEILNEEEMNFRVWERGSGVTQACGTGACAAVVASILNGKMERGKEITVHLAGGDLMIAWTEEGNVLMKGPAEVICRGVYEYKIEA,not soluble
15,QLSPDIYAKSCPNLVQIVRKQVAIALKAEIRMAASLIRLHFHDCFVNGCDASLLLDGADSEKLAIPNINSARGFEVIDTIKAAVENACPGVVSCADILTLAARDSVVLSGGPGWRVALGRKDGLVANQNSANNLPSPFEPLDAIIAKFVAVNLNITDVVALSGAHTFGQAKCAVFSNRLFNFTGAGNPDATLETSLLSNLQTVCPLGGNSNITAPLDRSTTDTFDNNYFKNLLEGKGLLSSDQILFSSDLAVNTTKKLVEAYSRSQSLFFRDFTCAMIRMGNISNGASGEVRTNCRVINN,soluble
16,MGSDKIHHHHHHMAKLYFYYSTMNAGKSTTLLQSDYNYRERNMNTLVYTAAIDDRFGKGKVSSRIGIHRQANLFHKDTDLFTEIALHIKQQKLHCILIDEAQFLTKAQVYQLSNVVDELNIPVLCYGLRTDFQAELFEGSKYLLAWADQLEELKTICYCGRKANFVLRLNEQGKAVKDGEQIQIGGNDSYMSVCRKHYKEILYSSNE,not soluble
17,MAVRVAINGFGRIGRNILRAIVESGRTDIQVVAINDLGPVETNAHLLRYDSVHGRFPKEVEVAGDTIDVGYGPIKVHAVRNPAELPWKEENVDIALECTGIFTSRDKAALHLEAGAKRVIVSAPADGADLTVVYGVNNDKLTKDHLVISNASCTTNCLAPVAQVLNDTIGIEKGFMTTIHSYTGDQPTLDTMHKDLYRARAAALSMIPTSTGAAKAVGLVLPELKGKLDGVAIRVPTPNVSVVDLTFIAKRETTVEEVNNAIREAANGRLKGILGYTDEKLVSHDFNHDSHSSVFHTDQTKVMDGTMVRILSWYDNEWGFSSRMSDTAVALGKLI,soluble
18,MIELKHVTFGYNKKQMVLQDINITIPDGENVGILGESGCGKSTLASLVLGLFKPVKGEIYLSDNAVLPIFQHPLTSFNPDWTIETSLKEALYYYRGLTDNTAQDQLLLQHLSTFELNAQLLTKLPSEVSGGQLQRFNVMRSLLAQPRVLICDEITSNLDVIAEQNVINILKAQTITNLNHFIVISHDLSVLQRLVNRIIVLKDGMIVDDFAIEELFNVDRHPYTKELVQAFSY,not soluble
19,MGSDKIHHHHHHMNNKERLLYVQEILQKETDEENELTLEQIMTKLHAVKGTEVNKKTLRDDLNALKDSGLFPISVNQEKNGVEKTYQHRTKLFTIQELRLLADALTTASFISKEETEQMINKLKKLTSHRLADHLDNRLLVPPDRGNREVQELIKTVHLLHDVIKHGEVIRYQYGQYNLTKEFTLRENGRFYTLKSYALIWDDQRYYLIGEDEDEDLIRYERVDQMYHVERTGAFFTWPEKFDLMEWLRTHSSVMTEQKEDLQLECHLDSLQDVLDCFGLDVTIQSLTDERFLLATKAVIDKGLMDWLFSLGGKVKVIHPPKLAEEIQREATAIIDQYRLANS,not soluble
